Measured values: patent US20200115464A1

What was measured:
[1] = target: human CD3 on Jurkat cells (CD3+, CD20- human T-cell line) (human) (UniProt P07766); test: FACS, serially diluted antibody on Jurkat cells (CD3+, CD20-)
FcR on U937 cells = test: cell-based or functional assay
[2] = target: cynomolgus CD3 on T cells of cynomolgus PBMCs (mkT cells) (cynomolgus monkey); test: FACS, serially diluted antibody on cynomolgus PBMC T cells (mkT cells)
[3] = target: His-tagged human FcγRI (human) (UniProt P12314); test: SPR (Biacore T200), His-captured human FcγRI, antibody injected, 25 C
His-tagged human FcγRI (human), sequence (P12314 16-288 limits assumed): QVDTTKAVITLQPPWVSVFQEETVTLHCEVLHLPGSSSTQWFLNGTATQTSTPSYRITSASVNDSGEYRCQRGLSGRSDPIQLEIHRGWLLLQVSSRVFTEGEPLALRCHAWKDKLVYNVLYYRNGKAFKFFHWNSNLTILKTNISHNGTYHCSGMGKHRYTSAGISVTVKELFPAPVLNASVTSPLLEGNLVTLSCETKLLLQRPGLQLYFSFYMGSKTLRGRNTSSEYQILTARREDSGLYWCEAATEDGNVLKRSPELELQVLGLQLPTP

[4] = target: His-tagged cynomolgus FcγRIIB (cynomolgus monkey); test: SPR steady-state, His-captured FcγR, antibody injected, 25 C
[5] = target: His-tagged human FcγRIIA (H131) (human) (UniProt P12318); test: as above
His-tagged human FcγRIIA (H131) (human), sequence (P12318 36-218 limits assumed): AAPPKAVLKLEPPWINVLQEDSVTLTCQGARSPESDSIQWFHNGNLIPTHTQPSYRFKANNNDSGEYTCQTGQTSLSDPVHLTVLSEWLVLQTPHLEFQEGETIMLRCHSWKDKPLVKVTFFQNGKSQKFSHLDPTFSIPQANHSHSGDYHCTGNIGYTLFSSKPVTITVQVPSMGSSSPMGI

[6] = target: His-tagged human FcγRIIA (R131) (human) (UniProt P12318); test: as above
His-tagged human FcγRIIA (R131) (human), sequence (P12318 36-218 H167R limits assumed): as the sequence (P12318 36-218 limits assumed) above, with H132R counted along it

[7] = target: His-tagged cynomolgus FcγRIIA (cynomolgus monkey); test: as above
[8] = target: His-tagged human FcγRIIIA (V176) (human) (UniProt P08637); test: as above
His-tagged human FcγRIIIA (V176) (human), sequence (P08637 17-208 F176V limits assumed): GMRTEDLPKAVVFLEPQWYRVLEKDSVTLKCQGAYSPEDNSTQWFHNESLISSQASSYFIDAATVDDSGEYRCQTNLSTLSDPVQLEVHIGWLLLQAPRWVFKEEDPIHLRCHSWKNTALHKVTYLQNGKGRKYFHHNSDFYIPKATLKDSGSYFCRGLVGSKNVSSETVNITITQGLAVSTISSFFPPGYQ

[9] = target: His-tagged human FcγRIIIA (F176) (human) (UniProt P08637); test: as above
His-tagged human FcγRIIIA (F176) (human), sequence (P08637 17-208 limits assumed): as the sequence (P08637 17-208 F176V limits assumed) above, with V160F counted along it

[10] = target: His-tagged human FcγRIIIB (human) (UniProt O75015); test: as above
His-tagged human FcγRIIIB (human), sequence (O75015 17-200 limits assumed): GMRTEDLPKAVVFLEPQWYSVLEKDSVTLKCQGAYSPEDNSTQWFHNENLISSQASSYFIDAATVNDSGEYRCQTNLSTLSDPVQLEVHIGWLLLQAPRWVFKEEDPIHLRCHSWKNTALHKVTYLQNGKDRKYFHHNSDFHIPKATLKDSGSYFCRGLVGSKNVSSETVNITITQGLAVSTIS

[11] = target: His-tagged cynomolgus FcγRIIIA (cynomolgus monkey) (UniProt Q8SPW2); test: as above
His-tagged cynomolgus FcγRIIIA (cynomolgus monkey), sequence (Q8SPW2 17-208 limits assumed): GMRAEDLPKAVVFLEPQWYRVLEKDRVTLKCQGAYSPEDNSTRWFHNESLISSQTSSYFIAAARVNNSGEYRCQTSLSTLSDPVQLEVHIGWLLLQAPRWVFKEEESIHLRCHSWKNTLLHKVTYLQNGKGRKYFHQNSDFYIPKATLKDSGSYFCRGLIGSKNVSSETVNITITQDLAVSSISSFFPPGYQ

[12] = target: His-tagged human FcγRIIB (human) (UniProt P31994); test: as above
His-tagged human FcγRIIB (human), sequence (P31994 46-217 limits assumed): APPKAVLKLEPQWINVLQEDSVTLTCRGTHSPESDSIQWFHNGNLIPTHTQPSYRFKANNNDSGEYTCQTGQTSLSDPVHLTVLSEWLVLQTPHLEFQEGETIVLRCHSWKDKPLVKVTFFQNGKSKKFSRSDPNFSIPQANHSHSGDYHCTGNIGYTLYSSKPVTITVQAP

| Substance | EC50 [1] | U937 Cytotoxicity Human T-cells [M] (EC50, calcein release) (FcR on U937 cells) | EC50 [2] | Kd [3] | T1/2 [3] | koff [3] | kon [3] | Kd [4] | Kd [5] | Kd [6] | Kd [7] | Kd [8] | Kd [9] | Kd [10] | Kd [11] | Kd [12] |
| --- | --- | --- | --- | --- | --- | --- | --- | --- | --- | --- | --- | --- | --- | --- | --- | --- |
| Control Antibody 1: monoclonal antibody OKT-3 against human T-cell surface antigens | 0.196 nM | 3.04e-12 M | – | – | – | – | – | – | – | – | – | – | – | – | – | – |
| Control Antibody 2: antibody SP34 reactive against the epsilon chain of the T3 complex on human T lymphocyte cells | – | – | 0.0703 nM | – | – | – | – | – | – | – | – | – | – | – | – | – |
| wt-IgG1 Isotype Control (antibody) | – | – | – | 4.3 nM | 15 min | 0.000748 s⁻¹ | 174000 M⁻¹ s⁻¹ | 42 nM | 11 nM | 20 nM | 42 nM | 15 nM | 13 nM | 23 nM | 6 nM | – |
| wt-IgG4 CPPC Isotype Control (antibody) | – | – | – | 13.9 nM | 5 min | – | – | 96 nM | 120 nM | 100 nM | 193 nM | – | 260 nM | – | 58 nM | 98 nM |
